# B1: Polycomb protein Pcl (Drosophila melanogaster (Fruit fly)), Q24459 (parent)
# chain: MMNNHFHLQHDHPPQNVAHPFMQQPSTAVPSAPPATYGYLAQPAGQQPQWMTTTYQILPPSVGPATVAKRYYATTGPQTTHPTHPSTIQITNSFAQQSTPPKQQAATSCSPFKANNIRIISTAPSVYSLNKPPQEAHSTYAPVQSYYLPSGGGQTAGQINLLAASGTGKQLQPPPLVPVTNSTSPPSTVVLDRINICINNHYTETPTSLSSSLTTAQQPSPIIPAIQHKAILPLIDSSTADSSSCSSSSVSSSSYSGTATTSAAVVIVDEPDSTTTTPQTPPTTPEAMSSPGKSSPSPPLLATQSLLKGVNSMKPSFKTVEAAPPTPPTPPSPPPPPPAPPVAAPSPAVTYALQEDVFIKCNDGRFYLGTIIDQTSDQYLIRFDDQSEQWCEPDKLRKLGGGSSITAGGGGASTTESTNTSPSGPMCVACKRSDIEDVVEICERCGRGYHRGCTVEIVTGSGIWSCKRCAKPMKMQQPVSHKITKPAGICRQLPYHADKLSWDEKHRVNEEQIYCYCGKPGKFDHNMLQCCKCRNWFHTQCMQNFKKKLLRGDMFFVFCCTVCNNGIEFVRRMQIEWVDVLHIALYNLRKHQHQKYHHLLNDIWPFILEQRHQLPICEKWRTLPETALMERLKQTLKDYSDRFVCGREFKRAPAFYALRHSGPPHIPKVFLEPHEELSDELLEKRFKLMLMPEEPDEGANELPKRVPKDVYEFNTDEDDPVETSEDEIPIKQIIEKAKKQAAQKADKHDELPLKPDLADDNANDGDPGKLPAPIPPLLDANSSRKRKAFRLSKRYDNSRNHCDLSSDENSSSSRGTSSLDLIIPPPVNFLGRNNPFLMATPKKASQGRSISVGTGVGVNGIINSIFKLKGTSKEQPRMVRTIKRRLSAKDITIGPNQEVRRRRTRRLTTAIEVISTTTINPIPSHYLPIYAKDLQPPAPPMGKPTHGRLLRQRPQKQSPSQSRRNSTSSTATSSSSNGIGAPGHSMLDLKQSVNKYFGGAMNRIDAGEPFAIRAKRRMGNGQVQYLVEWGGDTATTAIGLLGN
# Variants of: B1
# Settings: with ez_drome E(z)
row,effect of a mutation on the interaction,Variant
1,decreasing interaction,C430S
2,decreasing interaction,C430A
3,decreasing interaction,C517A
4,decreasing interaction,C517S

# From IntAct's records for PubMed 11571280
